Reference: patent US20190076400A1 (PROTAGONIST THERAPEUTICS, published 2019)
Where two headings read alike, the source gives them in different places. Numbered stars: 1 amine (or outer) side, 2 acyl side, 3 side chain; on linkers, the order of the positions; unused ones are H or OH. Square brackets hold non-standard residues; d marks the D form. Phe(2,6-Me2,4-CONH2) = Cc1cc(C(N)=O)cc(C)c1C[C@H](N)C(=O)O; Bip = N[C@@H](Cc1ccc(-c2ccccc2)cc1)C(=O)O; NMeW = CN[C@@H](Cc1c[nH]c2ccccc12)C(=O)O; Phe(4-CN) = N#Cc1ccc(C[C@H](N)C(=O)O)cc1; Phe(4-F) = N[C@@H](Cc1ccc(F)cc1)C(=O)O; Dmt = Cc1cc(O)cc(C)c1C[C@H](N)C(=O)O; NMeI = CC[C@H](C)[C@H](NC)C(=O)O; hPhe = N[C@@H](CCc1ccccc1)C(=O)O; NMeβAla = CN(CCC(=O)[*:2])[*:1]; Tic = O=C(O)[C@@H]1Cc2ccccc2CN1; dTic = O=C(O)[C@H]1Cc2ccccc2CN1; β3hF = N[C@H](CC(=O)O)Cc1ccccc1; NMeL = CN[C@@H](CC(C)C)C(=O)O; NMeNva = CCC[C@H](NC)C(=O)O; NMeV = CN[C@H](C(=O)O)C(C)C; NMeA = CN[C@@H](C)C(=O)O; Nle = CCCC[C@H](N)C(=O)O; dNMeA = CN[C@H](C)C(=O)O; Aib = CC(C)(N)C(=O)O; Sar = CNCC(=O)O

Tests used:
Test in all cases: cell-based or functional assay
[1] = molecular target: T1, µ-opioid receptor (MOR), Human-ORPM1 (human, UniProt P35372 1-400)
T1 sequence (P35372 whole entry): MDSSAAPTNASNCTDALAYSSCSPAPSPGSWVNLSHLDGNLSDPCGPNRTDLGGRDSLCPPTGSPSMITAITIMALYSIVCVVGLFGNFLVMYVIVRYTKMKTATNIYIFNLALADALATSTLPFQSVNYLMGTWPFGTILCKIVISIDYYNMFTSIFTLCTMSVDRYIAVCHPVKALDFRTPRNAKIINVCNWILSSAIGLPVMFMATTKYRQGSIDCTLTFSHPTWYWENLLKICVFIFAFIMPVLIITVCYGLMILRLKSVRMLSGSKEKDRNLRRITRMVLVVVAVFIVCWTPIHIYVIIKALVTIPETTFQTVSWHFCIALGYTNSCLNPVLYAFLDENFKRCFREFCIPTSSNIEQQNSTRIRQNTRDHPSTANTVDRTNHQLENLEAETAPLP

[2] = molecular target: T2, δ-opioid receptor (DOR), Human-ORPD1 (human, UniProt P41143 1-372)
T2 sequence (P41143 whole entry, stated change not applied): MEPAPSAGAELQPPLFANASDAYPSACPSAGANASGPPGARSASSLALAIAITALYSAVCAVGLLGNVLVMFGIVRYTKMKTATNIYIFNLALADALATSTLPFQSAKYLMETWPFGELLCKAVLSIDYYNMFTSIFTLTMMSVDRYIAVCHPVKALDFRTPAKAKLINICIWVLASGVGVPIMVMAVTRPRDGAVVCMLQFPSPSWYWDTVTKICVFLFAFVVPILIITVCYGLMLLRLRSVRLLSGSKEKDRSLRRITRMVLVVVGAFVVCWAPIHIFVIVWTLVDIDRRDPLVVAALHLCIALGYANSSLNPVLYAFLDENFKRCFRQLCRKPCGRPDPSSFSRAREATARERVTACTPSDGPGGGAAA

[3] = molecular target: T1, µ-opioid receptor (MOR), Human-ORPM1; remark: listed apart in the source
[4] = molecular target: T2, δ-opioid receptor (DOR), Human-ORPD1; remark: listed apart in the source

Row | Binder | MOR EC50 [1] | DOR EC50 [2] | MOR EC50 [3] | DOR EC50 [4]
1 | H-[Dmt][dD]G[β3hF][NMeNva]-OH (SMILES CCC[C@@H](C(=O)O)N(C)C(=O)C[C@H](Cc1ccccc1)NC(=O)CNC(=O)[C@@H](CC(=O)O)NC(=O)[C@@H](N)Cc1c(C)cc(O)cc1C) [H-DMT-(D)Asp-G-bhF-N(Me)-Nva-OH] | ≤ 1 nM | ≤ 1 nM |  | 
2 | H-[Dmt][dR]HK-NH2 (SMILES Cc1cc(O)cc(C)c1C[C@H](N)C(=O)N[C@H](CCCNC(=N)N)C(=O)N[C@@H](Cc1c[nH]cn1)C(=O)N[C@@H](CCCCN)C(N)=O) [H-DMT-r-H-K-NH2] |  |  | ≤ 50 nM | > 200 nM
3 | H-[Dmt][Tic]G[β3hF][Sar]-NH2 (SMILES Cc1cc(O)cc(C)c1C[C@H](N)C(=O)N1Cc2ccccc2C[C@H]1C(=O)NCC(=O)N[C@H](CC(=O)N(C)CC(N)=O)Cc1ccccc1) [H-DMT-Tic-G-bhF-Sar-NH2] |  |  | ≤ 200 nM | ≤ 200 nM
4 | H-[Dmt][dNMeA]XG-NH2 (not fully specified (residue 3); printed as DMT-N(Me)a-Aba-G) [H-DMT-N(Me)-a-Aba-G-NH2] |  |  | ≤ 1 nM | ≤ 1 nM
5 | H-[Dmt][dA]I[β3hF][Sar]-NH2 (SMILES CC[C@H](C)[C@H](NC(=O)[C@@H](C)NC(=O)[C@@H](N)Cc1c(C)cc(O)cc1C)C(=O)N[C@H](CC(=O)N(C)CC(N)=O)Cc1ccccc1) [H-DMT-a-ILeu-bhF-Sar-NH2] |  |  | ≤ 1 nM | ≤ 50 nM
6 | H-[Dmt][dD]G[β3hF][NMeL]-OH (SMILES Cc1cc(O)cc(C)c1C[C@H](N)C(=O)N[C@H](CC(=O)O)C(=O)NCC(=O)N[C@H](CC(=O)N(C)[C@@H](CC(C)C)C(=O)O)Cc1ccccc1) [H-DMT-(D)Asp-G-bhF-N(Me)-Leu-OH] | ≤ 1 nM | ≤ 1 nM |  | 
7 | H-[Phe(2,6-Me2,4-CONH2)][Tic]G[β3hF][Sar]-NH2 (SMILES Cc1cc(C(N)=O)cc(C)c1C[C@H](N)C(=O)N1Cc2ccccc2C[C@H]1C(=O)NCC(=O)N[C@H](CC(=O)N(C)CC(N)=O)Cc1ccccc1) [H-Phe(DMC)-Tic-G-bhF-Sar-NH2] |  |  | ≤ 200 nM | ≤ 200 nM
8 | H-[Dmt]GG[β3hF][Sar]-NH2 (SMILES Cc1cc(O)cc(C)c1C[C@H](N)C(=O)NCC(=O)NCC(=O)N[C@H](CC(=O)N(C)CC(N)=O)Cc1ccccc1) [H-DMT-G-G-bhF-Sar-NH2] |  |  | ≤ 1 nM | ≤ 1 nM
9 | H-[Dmt][dR]X[NMeβAla]-OH (not fully specified (residue 3); printed as H-DMT-r-Homo-F-N(Me)bAla-OH) [H-DMT-r-Homo-F-N(Me)bAla-OH] |  |  | ≤ 1 nM | ≤ 1 nM
10 | H-[Dmt][dTic]F[Sar]-NH2 (SMILES Cc1cc(O)cc(C)c1C[C@H](N)C(=O)N1Cc2ccccc2C[C@@H]1C(=O)N[C@@H](Cc1ccccc1)C(=O)N(C)CC(N)=O) [H-DMT-dTic-F-Sar-NH2] |  |  | ≤ 1 nM | ≤ 10 nM
11 | H-[Dmt][dD]G[β3hF][NMeI]-OH (SMILES CC[C@H](C)[C@@H](C(=O)O)N(C)C(=O)C[C@H](Cc1ccccc1)NC(=O)CNC(=O)[C@@H](CC(=O)O)NC(=O)[C@@H](N)Cc1c(C)cc(O)cc1C) [H-DMT-(D)Asp-G-bhF-N(Me)-Ile-OH] | ≤ 1 nM | ≤ 1 nM |  | 
12 | H-[Dmt][dR]F[Sar]-NH2 (SMILES Cc1cc(O)cc(C)c1C[C@H](N)C(=O)N[C@H](CCCNC(=N)N)C(=O)N[C@@H](Cc1ccccc1)C(=O)N(C)CC(N)=O) [H-DMT-r-F-Sar-NH2] |  |  | ≤ 1 nM | ≤ 10 nM
13 | H-[Dmt][dD]G[β3hF][NMeV]-OH (SMILES Cc1cc(O)cc(C)c1C[C@H](N)C(=O)N[C@H](CC(=O)O)C(=O)NCC(=O)N[C@H](CC(=O)N(C)[C@H](C(=O)O)C(C)C)Cc1ccccc1) [H-DMT-(D)Asp-G-bhF-N(Me)-Val-OH] | ≤ 1 nM | ≤ 1 nM |  | 
14 | H-[Dmt][dT]G[β3hF][Sar]-NH2 (SMILES Cc1cc(O)cc(C)c1C[C@H](N)C(=O)N[C@@H](C(=O)NCC(=O)N[C@H](CC(=O)N(C)CC(N)=O)Cc1ccccc1)[C@H](C)O) [H-DMT-(D)Thr-G-bhF-Sar-NH2] |  |  | ≤ 1 nM | ≤ 1 nM
15 | H-[Phe(2,6-Me2,4-CONH2)]GG[β3hF][Sar]-NH2 (SMILES Cc1cc(C(N)=O)cc(C)c1C[C@H](N)C(=O)NCC(=O)NCC(=O)N[C@H](CC(=O)N(C)CC(N)=O)Cc1ccccc1) [H-Phe(DMC)-G-G-bhF-Sar-NH2] |  |  | ≤ 1 nM | ≤ 1 nM
16 | H-[Dmt][dA][hPhe][Nle]-NH2 (SMILES CCCC[C@H](NC(=O)[C@H](CCc1ccccc1)NC(=O)[C@@H](C)NC(=O)[C@@H](N)Cc1c(C)cc(O)cc1C)C(N)=O) [H-DMT-a-hF-Nle-NH2] |  |  | ≤ 1 nM | ≤ 1 nM
17 | H-[Phe(2,6-Me2,4-CONH2)][dT]G[β3hF][Sar]-NH2 (SMILES Cc1cc(C(N)=O)cc(C)c1C[C@H](N)C(=O)N[C@@H](C(=O)NCC(=O)N[C@H](CC(=O)N(C)CC(N)=O)Cc1ccccc1)[C@H](C)O) [H-Phe(DMC)-(D)Thr-G-bhF-Sar-NH2] |  |  | ≤ 10 nM | ≤ 1 nM
18 | H-[Dmt][dNMeA]F[Sar]-NH2 (SMILES Cc1cc(O)cc(C)c1C[C@H](N)C(=O)N(C)[C@H](C)C(=O)N[C@@H](Cc1ccccc1)C(=O)N(C)CC(N)=O) [H-DMT-N(Me)-a-F-Sar-NH2] |  |  | ≤ 1 nM | ≤ 10 nM
19 | H-[Dmt][dA][hPhe][Sar]-NH2 (SMILES Cc1cc(O)cc(C)c1C[C@H](N)C(=O)N[C@H](C)C(=O)N[C@@H](CCc1ccccc1)C(=O)N(C)CC(N)=O) [H-DMT-a-hF-Sar-NH2] |  |  | ≤ 1 nM | ≤ 1 nM
20 | H-[Dmt][dR]W[NMeβAla]-OH (SMILES Cc1cc(O)cc(C)c1C[C@H](N)C(=O)N[C@H](CCCNC(=N)N)C(=O)N[C@@H](Cc1c[nH]c2ccccc12)C(=O)N(C)CCC(=O)O) [H-DMT-r-W-N(Me)bAla-OH] |  |  | ≤ 1 nM | ≤ 50 nM
21 | H-[Dmt][dY]G[β3hF][Sar]-NH2 (SMILES Cc1cc(O)cc(C)c1C[C@H](N)C(=O)N[C@H](Cc1ccc(O)cc1)C(=O)NCC(=O)N[C@H](CC(=O)N(C)CC(N)=O)Cc1ccccc1) [H-DMT-(D)Tyr-G-bhF-Sar-NH2] |  |  | ≤ 1 nM | ≤ 1 nM
22 | H-[Dmt][dD]G[β3hF][NMeW]-OH (SMILES Cc1cc(O)cc(C)c1C[C@H](N)C(=O)N[C@H](CC(=O)O)C(=O)NCC(=O)N[C@H](CC(=O)N(C)[C@@H](Cc1c[nH]c2ccccc12)C(=O)O)Cc1ccccc1) [H-DMT-(D)Asp-G-bhF-N(Me)-Trp-OH] | ≤ 1 nM | ≤ 1 nM |  | 
23 | H-[Dmt][dTic]GF[Sar]-NH2 (SMILES Cc1cc(O)cc(C)c1C[C@H](N)C(=O)N1Cc2ccccc2C[C@@H]1C(=O)NCC(=O)N[C@@H](Cc1ccccc1)C(=O)N(C)CC(N)=O) [H-DMT-dTic-G-F-Sar-NH2] |  |  | ≤ 1 nM | ≤ 1 nM
24 | H-[Dmt][dR][Bip]K-NH2 (SMILES Cc1cc(O)cc(C)c1C[C@H](N)C(=O)N[C@H](CCCNC(=N)N)C(=O)N[C@@H](Cc1ccc(-c2ccccc2)cc1)C(=O)N[C@@H](CCCCN)C(N)=O) [H-DMT-r-Bip-K-NH2] |  |  | ≤ 200 nM | > 200 nM
25 | H-[Dmt][dD]G[β3hF][Sar]-NH2 (SMILES Cc1cc(O)cc(C)c1C[C@H](N)C(=O)N[C@H](CC(=O)O)C(=O)NCC(=O)N[C@H](CC(=O)N(C)CC(N)=O)Cc1ccccc1) [H-DMT-(D)Asp-G-bhF-Sar-NH2] |  |  | ≤ 1 nM | ≤ 1 nM
26 | H-[Dmt][dR][Phe(4-F)][Sar]-NH2 (SMILES Cc1cc(O)cc(C)c1C[C@H](N)C(=O)N[C@H](CCCNC(=N)N)C(=O)N[C@@H](Cc1ccc(F)cc1)C(=O)N(C)CC(N)=O) [H-DMT-r-Phe(4-F)-Sar-NH2] |  |  | ≤ 1 nM | ≤ 10 nM
27 | H-[Dmt][dA]L[β3hF][Sar]-NH2 (SMILES Cc1cc(O)cc(C)c1C[C@H](N)C(=O)N[C@H](C)C(=O)N[C@@H](CC(C)C)C(=O)N[C@H](CC(=O)N(C)CC(N)=O)Cc1ccccc1) [H-DMT-a-Leu-bhF-Sar-NH2] |  |  | ≤ 1 nM | ≤ 50 nM
28 | H-[Dmt][dA][Aib][β3hF][Sar]-NH2 (SMILES Cc1cc(O)cc(C)c1C[C@H](N)C(=O)N[C@H](C)C(=O)NC(C)(C)C(=O)N[C@H](CC(=O)N(C)CC(N)=O)Cc1ccccc1) [H-DMT-a-Aib-bhF-Sar-NH2] |  |  | ≤ 1 nM | ≤ 1 nM
29 | H-[Dmt][dR][Phe(4-CN)][Sar]-NH2 (SMILES Cc1cc(O)cc(C)c1C[C@H](N)C(=O)N[C@H](CCCNC(=N)N)C(=O)N[C@@H](Cc1ccc(C#N)cc1)C(=O)N(C)CC(N)=O) [H-DMT-r-Phe(4-CN)-Sar-NH2] |  |  | ≤ 10 nM | ≤ 1 nM
30 | H-[Dmt][dD]G[β3hF][NMeA]-OH (SMILES Cc1cc(O)cc(C)c1C[C@H](N)C(=O)N[C@H](CC(=O)O)C(=O)NCC(=O)N[C@H](CC(=O)N(C)[C@@H](C)C(=O)O)Cc1ccccc1) [H-DMT-(D)Asp-G-bhF-N(Me)-Ala-OH] | ≤ 1 nM | ≤ 1 nM |  | 
